Assay results as given in patent US12715909 (ENTHERA S R L, dated 2026).

T1: human IGFBP4 (human, UniProt P22692 22-258)
T1 construct: Bought protein
T1 sequence (looked up): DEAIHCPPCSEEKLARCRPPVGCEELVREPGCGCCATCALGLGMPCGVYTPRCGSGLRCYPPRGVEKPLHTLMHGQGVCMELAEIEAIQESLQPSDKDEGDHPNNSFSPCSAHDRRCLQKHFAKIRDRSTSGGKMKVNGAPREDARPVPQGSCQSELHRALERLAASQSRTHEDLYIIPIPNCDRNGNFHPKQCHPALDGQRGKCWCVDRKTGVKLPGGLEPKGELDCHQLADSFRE

T2: human IGFBP6 (human, UniProt P24592 28-240, limits assumed)
T2 construct: Bought protein
T2 sequence (looked up): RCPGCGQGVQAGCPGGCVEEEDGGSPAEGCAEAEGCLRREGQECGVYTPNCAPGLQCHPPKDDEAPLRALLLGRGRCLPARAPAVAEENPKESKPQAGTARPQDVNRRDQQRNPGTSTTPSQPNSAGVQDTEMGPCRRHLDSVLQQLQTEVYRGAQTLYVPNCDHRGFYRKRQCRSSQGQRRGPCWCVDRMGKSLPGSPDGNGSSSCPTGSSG

T3: human IGFBP2 (human, UniProt P18065 37-325, limits assumed)
T3 construct: Bought protein
T3 sequence (looked up): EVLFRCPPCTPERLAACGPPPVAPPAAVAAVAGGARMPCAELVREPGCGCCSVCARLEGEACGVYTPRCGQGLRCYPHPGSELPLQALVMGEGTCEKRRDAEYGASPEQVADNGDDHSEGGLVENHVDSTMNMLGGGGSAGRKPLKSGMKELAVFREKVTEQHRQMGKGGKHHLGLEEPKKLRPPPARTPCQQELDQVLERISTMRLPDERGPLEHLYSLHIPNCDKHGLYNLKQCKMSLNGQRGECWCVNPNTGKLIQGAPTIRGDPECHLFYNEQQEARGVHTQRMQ

T4: human IGFBP1 (human, UniProt P08833 26-259)
T4 construct: Bought protein
T4 sequence (looked up): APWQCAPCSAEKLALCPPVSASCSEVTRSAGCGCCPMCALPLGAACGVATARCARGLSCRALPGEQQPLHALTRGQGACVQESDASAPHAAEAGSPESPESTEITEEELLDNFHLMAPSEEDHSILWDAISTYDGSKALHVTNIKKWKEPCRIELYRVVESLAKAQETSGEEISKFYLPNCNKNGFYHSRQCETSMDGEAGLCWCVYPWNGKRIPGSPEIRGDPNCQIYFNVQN

B1: G01 scFv (scFv, V domains shown)
VH: QVQLVQSGAEVKKPGSSVKVSCKASGGTFSSYAISWVRQAPGQGLEWMGGIIPIFGTANYAQKFQGRVTITADESTSTAYMELSSLRSEDTAVYYCASITEGAFDYWGQGTLVTVSS
VL: AIQLTQSPSTLSASVGDRVTITCRASRTVGSWLAWYQQKPGKAPKLLIYDASNLQSGVPSRFSGSGSGTEFTLTISSLQPDDLSTYYCQQYNSSPYTFGQGTKVEIK
notes: scFv as screened by ELISA
B2: A09 scFv (scFv, V domains shown)
VH: QVQLVESGAEVKKPGASVKVSCKASGYTFTSYGISWVRQAPGQGLEWMGWISAYNGNTNYAQKLQGRVTMTTDTSTSTAYMELRSLRSDDTAVYYCAREWELLGGLDYWGQGTLVTVSS
VL: QSALTQPASVSGSPGQSITISCTGTSSDVGGYNYVSWYQQHPGKAPKLMIYEVSNRPSGVSNRFSGSKSGNTASLTISGLQAEDEADYYCSSYTSSSTVVFGGGTKLTVL
B3: B09 full length mAb (antibody, V domains shown)
VH: QVQLVQSGAEVKKPGASVKVSCKASGYTFTSYGISWVRQAPGQGLEWMGWISAYNGNTNYAQKLQGRVTMTTDTSTSTAYMELRSLRSDDTAVYYCARDLAVGTHGDYWGQGTLVTVSS
VL: QSALTQPASVSGSPGQSITISCTGTSSDVGGYNYVSWYQQHPGKAPKLMIYEVSNRPSGVSNRFSGSKSGNTASLTISGLQAEDEADYYCSSYTSSSTLEVVFGGGTKLTVL
notes: also called anti-IGFBP5 mAb B09

Experiments:
human IGFBP4 = target: T1, human IGFBP4; experiment: ELISA, scFv, secondary screening
Description: (§1) At the end of the discovery process, each selection output was screened for antigen-specific antibodies and the binding characteristics of monoclonal antibody clones was analysed. For this purpose, 3072 single colonies were used for scFv antibody production. […] 192 of those ELISA positive clones were selected for a secondary screening. For that purpose, a second batch of scFv were produced and tested on a broader panel of antigens: Streptavidin+biotinylated human IGFBP5, Streptavidin+biotinylated murine IGFBP5, Streptavidin, BSA, Human IGFBP1, Human IGFBP2, Human IGFBP3, Human IGFBP4, Human IGFBP5 and Human IGFBP6. […] Binding to human IGFBP1, human IGFBP2, human IGFBP3, human IGFBP4 and human IGFBP6 was not detected. […] The scFv DNA sequence was amplified by PCR and cloned into YUMAB's mammalian scFv-Fc expression vector, resulting in a genetic fusion of the scFv with a human IgG4 Fc. Bacterial clones with a correctly cloned scFv gene were used for isolation of transfection grade DNA. The DNA was used for the transient transfection of HEK cells which produced and secreted the antibody into the culture medium. The antibodies were purified by affinity chromatography (Protein A) and re-buffered in PBS. The protein concentration was determined by UV/VIS spectrometry and purity was checked by Coomassie staining. 13 of the 15 antibodies could be successfully produced in the scFv-Fc format.

human IGFBP3 = target: T5, human IGFBP3 (human, UniProt P17936 28-291); experiment: ELISA, scFv, secondary screening
T5 construct: Bought protein
T5 sequence (P17936 28-291 limits assumed): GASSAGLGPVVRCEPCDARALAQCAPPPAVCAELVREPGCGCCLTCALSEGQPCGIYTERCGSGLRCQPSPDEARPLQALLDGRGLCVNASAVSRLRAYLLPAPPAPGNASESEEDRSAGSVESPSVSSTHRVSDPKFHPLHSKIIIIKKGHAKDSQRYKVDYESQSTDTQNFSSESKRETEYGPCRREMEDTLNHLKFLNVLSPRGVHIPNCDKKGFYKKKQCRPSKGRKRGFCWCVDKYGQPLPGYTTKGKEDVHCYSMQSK
Description: as §1

mouse IGFBP5 [1] = target: T6, mouse IGFBP5 (mouse, UniProt Q07079 20-271); experiment: ELISA, scFv, secondary screening
T6 construct: Bought protein; in solution in BLI; also called mIGFBP-5; murine IGFBP5
T6 sequence (Q07079 20-271 limits assumed): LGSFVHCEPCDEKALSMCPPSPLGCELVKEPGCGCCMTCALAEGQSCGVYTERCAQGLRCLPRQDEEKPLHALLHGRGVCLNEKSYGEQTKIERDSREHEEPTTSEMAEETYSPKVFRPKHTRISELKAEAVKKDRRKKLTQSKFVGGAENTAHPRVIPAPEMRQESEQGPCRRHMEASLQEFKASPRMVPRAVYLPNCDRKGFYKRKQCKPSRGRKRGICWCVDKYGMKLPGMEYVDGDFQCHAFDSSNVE
Description: as §1

human IGFBP5 [2] = target: T7, human IGFBP5 (human, UniProt P24593 21-272); experiment: ELISA, scFv, secondary screening
T7 construct: Bought protein; in BLI it was in solution; also called hIGFBP-5
T7 sequence (P24593 21-272 limits assumed): as the sequence (Q07079 20-271 limits assumed) above, with G87R, T90V, V116I, V157I, P159S, F183L, A245T counted along it
Description: as §1

human IGFBP6 = target: T2, human IGFBP6; experiment: ELISA, scFv, secondary screening
Description: as §1

human IGFBP2 = target: T3, human IGFBP2; experiment: ELISA, scFv, secondary screening
Description: as §1

human IGFBP1 = target: T4, human IGFBP1; experiment: ELISA, scFv, secondary screening
Description: as §1

mouse IGFBP5 [3] = target: T6, mouse IGFBP5; experiment: BLI (Octet/BLItz), mAb captured via Fc on AHC biosensor, antigen in solution
Description: (§2) To assess the binding affinity in more detail, affinity measurements were performed using Biomolecular Interaction Analysis performed by an Octet platform (BLItz System), which is a Biolayer Interferometry (BLI) platform. To establish the assay, the target monoclonal antibody (mAb, 2 identical antigen binding moieties, 2 μg/ml in 1% BSA containing 0.05% Tween 20) was immobilized via Fc on the via AHC biosensor and the interaction with the antigen human IGFBP5 (R&D, cat n° 875-B5) and mouse IGFBP5 (R&D, cat n° 578-B5) at different concentration were measured.

human IGFBP5 [4] = target: T7, human IGFBP5; experiment: as above
Description: as §2

Binder | binding result (human IGFBP4) | binding result (human IGFBP3) | binding result (mouse IGFBP5 [1]) | binding result (human IGFBP5 [2]) | binding result (human IGFBP6) | binding result (human IGFBP2) | binding result (human IGFBP1) | Kd (mouse IGFBP5 [3]) [nM] | Kd (human IGFBP5 [4]) [nM]
B1 | no binding | no binding | binds | binds | no binding | no binding | no binding |  | 
B2 | no binding | no binding | binds | binds | no binding | no binding | no binding |  | 
B3 |  |  |  |  |  |  |  | 0.1 | 0.1
